One assay deals with T1, human SIRPγ (human, UniProt Q9P1W8 29-387).
T1 construct: on transfected CHO-K1 cells; also called hSIRPγ
Nature of the assay: CELISA, CHO-K1 transfectants; extrapolated. Here is the method: Binding of the humanized antibodies to hSIRPα was studied in CELISA format. Binding of the hSIRPα antibodies to human SIRPαV1, SIRPαV2, hSIRPβ1, and hSIRPγ was confirmed using CHO-K1 cells that had been transiently transfected with cDNA encoding the full length open reading frame of each of these respective targets subcloned into the pCI-neo vector. CHO-K1.hSIRPαV1, CHO-K1.hSIRPαV2, CHO-K1.hSIRPβ1, and CHO-K1.hSIRPγ cells were seeded in culture medium (DMEM-F12 (Gibco) supplemented with 5% New Born Calf Serum (BioWest) and Pen/Strep (Gibco)) in 96-well flat-bottom tissue culture plates and incubated at 37° C., 5% CO₂ and 95% humidity until cell layers were confluent. Subsequently, culture medium was removed and cells were incubated for 1 hour at 37° C., 5% CO₂ and 95% humidity with purified hSIRPα antibodies (10 μg/mL and dilutions thereof). Next, cells were washed with PBS-T and incubated for 1 hour at 37° C., 5% CO₂ and 95% humidity with goat-anti-human IgG-HRP conjugate (Jackson Immuno Research) or goat-anti-mouse IgG-HRP (Southern Biotech). Subsequently, cells were washed three times with PBS-T and anti-hSIRPα immunoreactivity was visualized with TMB Stabilized Chromogen (Invitrogen). Reactions were stopped with 0.5 M H₂SO₄ and absorbances were read at 450 and 610 nm. […] In Table 13 the EC50 values of the humanized hSIRPα antibodies are depicted.
Table 13: Binding of humanized and parental hSIRPα.50A antibodies to CHO-K1.hSIRPαV1, CHO-K1.hSIRPαV2, CHO-K1.hSIRPβ1, and CHO-K1.hSIRPγ cells.

For assay [1], the target named is T2, hSIRPβ1 transcript variant 3/hSIRPβL (human, UniProt Q5TFQ8 30-398).
T2 construct: also called human SIRPβL
Briefly: CELISA, CHO-K1 transfectants; average of two experiments. The procedure: The binding specificity of antibodies hSIRPα.40A and hSIRPα.50A to hSIRPα were compared in a CELISA format. In short, CHO-K1 cells were transiently transfected with hSIRPαV1, hSIRPαV2, hSIRPβ1, hSIRPβL, and hSIRPγ cDNAs. Subsequently, hSIRPα binding was assessed by CELISA using CHO-K1.hSIRPαV1, CHO-K1.hSIRPαV2, CHO-K1.hSIRPβ1, CHO-K1.hSIRPβL, and CHO-K1.hSIRPγ cells. Detection of bound antibody was done with goat-anti-mouse IgG-HRP (Southern Biotech).

The target of a further assay is T3, human SIRPα variant 2 (human, UniProt P78324 31-504).
T3 construct: full length ORF on transfected CHO-K1 cells; also called hSIRPαV2; SIRPαV2
Nature of the assay: flow cytometry, blockade of DyLight488-hCD47/Fc binding to THP-1 cells. Here is the method: For this purpose, THP-1 (ATCC TIB-202) and U-937 (ATCC CRL-1593.2) monocyte cell lines were used as the source of hSIRPα in the assay. THP-1 and U-937 cells were seeded in 96-well round bottomed tissue culture plates and incubated for 45 minutes with FcR Blocking Reagent (Miltenyi Biotec) and hSIRPα.50A antibody (200 μg/mL and dilutions thereof) in PBS/1% BSA at 4° C. […] After this labeling procedure, cells were washed two times, resuspended in PBS/1% BSA containing 0.1 μg/mL DAPI (BioLegend), and analysed by flow cytometry on the FACSCanto II (BD Biosciences). Data were processed and analysed with FlowJo V10 software (FlowJo, LLC).
As depicted in FIG. 4 and the following Table 11, binding of recombinant hCD47 fused to an Fc domain of human IgG1 was monitored in the presence of increasing amounts of the hSIRPα.50A antibody. Antibody hSIRPα.50A blocked the hSIRPα/hCD47 interaction, using the flow cytometry-based method described above. […] IC50 values represent the concentration at which half of the inhibition is observed.
On the technique in general: A flow cytometer gives signals particle by particle.

Assay [2] concerns the target T4, hSIRPα expressed on primary human cells (human, UniProt P78324 31-504).
T4 construct: whole, on cells; also called hSIRPα on primary human CD14+ monocytes; on primary human granulocytes
Briefly: flow cytometry, blockade of DyLight488-hCD47/Fc binding to CD14+ enriched monocytes, donor 2. Here is the method: To assess the blocking ability of hSIRPα.50A, CD14+ enriched monocytes cells were seeded in 96-well round bottomed tissue culture plates and incubated for 45 minutes with FcR Blocking Reagent (Miltenyi Biotec) and hSIRPα.50A antibody (200 μg/mL and dilutions thereof) in PBS/1% BSA at 4° C. […] After this labeling procedure, cells were washed two times, resuspended in PBS/1% BSA containing 0.1 μg/mL DAPI (BioLegend), and analysed by flow cytometry on the FACSVerse (BD Biosciences). Data were processed and analysed with FlowJo V10 software (FlowJo, LLC). […] IC50 values represent the concentration at which half of the inhibition is observed.

Another assay addresses T5, human SIRPβ1 (human, UniProt O00241 30-398).
T5 construct: also called hSIRPβ1
Briefly: CELISA, CHO-K1 transfectants. Here is the method: The specificity of monoclonal anti-hSIRPα antibodies (e.g., including the hSIRPα antibodies known in the art, KWAR23 ([…]. Patent CA2939293 A1), 18D5 (Patent WO2017/178653 A2), and various commercially available hSIRPα antibodies) for binding to hSIRPαV1, hSIRPαV1(P74A), and hSIRPβ1 was evaluated by CELISA. Reactivity was confirmed using CHO-K1 cells (ATCC CCL-61) expressing a cDNA encoding the full length open reading frame of hSIRPαV1, hSIRPαV1(P74A), and hSIRPβ1 subcloned into the pCI-neo vector (Promega, Madison, Wis.). CHO-K1.hSIRPαV1, CHO-K1.hSIRPαV1(P74A), and CHO-K1.hSIRPβ1 cells were seeded in culture medium (DMEM-F12 (Gibco) supplemented with 5% New Born Calf Serum (BioWest) and Pen/Strep (Gibco)) in 96-well flat-bottom tissue culture plates and incubated at 37° C., 5% CO₂ and 95% humidity for 24 hours. Subsequently, culture medium was removed and cells were incubated for 1 hour at 37° C., 5% CO₂ and 95% humidity with purified hSIRPα antibodies (used at 10 μg/ml and dilutions thereof). Next, cells were washed with PBS-T and incubated for 1 hour at 37° C., 5% CO₂ and 95% humidity with either goat-anti-mouse IgG-HRP (Southern Biotech), goat-anti-human IgG-HRP (Jackson Immuno Research), or goat-anti-rabbit IgG-HRP (Southern Biotech). Subsequently, cells were washed three times with PBS-T and immunoreactivity against hSIRPαV1, hSIRPαV1(P74A), and hSIRPβ1 was visualized with TMB Stabilized Chromogen (Invitrogen). Reactions were stopped with 0.5 M H₂SO₄ and absorbances were read at 450 and 610 nm.

We go through two molecules from patent publication US20180312587A1 (ADURO BIOTECH HOLDINGS EUROPE B V, published 2018).

T5 sequence (O00241 30-398 limits assumed): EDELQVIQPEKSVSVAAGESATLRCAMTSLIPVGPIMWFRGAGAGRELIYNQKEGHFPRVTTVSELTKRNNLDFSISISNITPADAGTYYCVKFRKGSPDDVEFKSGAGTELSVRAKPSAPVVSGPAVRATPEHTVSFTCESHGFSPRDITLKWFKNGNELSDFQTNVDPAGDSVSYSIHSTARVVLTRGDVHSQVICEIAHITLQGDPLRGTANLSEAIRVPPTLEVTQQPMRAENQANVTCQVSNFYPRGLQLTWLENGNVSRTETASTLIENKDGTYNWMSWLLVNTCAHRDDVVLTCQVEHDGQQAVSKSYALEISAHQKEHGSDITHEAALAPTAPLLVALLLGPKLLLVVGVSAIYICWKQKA
T4 sequence (P78324 31-504): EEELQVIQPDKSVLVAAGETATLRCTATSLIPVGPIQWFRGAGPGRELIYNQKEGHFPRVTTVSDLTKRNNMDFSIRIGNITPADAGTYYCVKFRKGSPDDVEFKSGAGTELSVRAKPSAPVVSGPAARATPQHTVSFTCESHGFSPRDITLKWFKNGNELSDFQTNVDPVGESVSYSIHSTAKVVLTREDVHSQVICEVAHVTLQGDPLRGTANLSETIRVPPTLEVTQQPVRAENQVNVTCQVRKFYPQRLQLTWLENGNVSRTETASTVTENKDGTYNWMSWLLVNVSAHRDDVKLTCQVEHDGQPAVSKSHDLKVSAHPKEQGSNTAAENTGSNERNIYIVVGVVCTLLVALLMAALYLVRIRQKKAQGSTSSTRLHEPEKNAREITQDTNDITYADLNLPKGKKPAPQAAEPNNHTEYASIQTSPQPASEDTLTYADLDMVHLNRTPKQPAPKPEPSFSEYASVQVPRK
T3 sequence (P78324 other isoform, or with tags, fused parts or gaps mutant limits assumed): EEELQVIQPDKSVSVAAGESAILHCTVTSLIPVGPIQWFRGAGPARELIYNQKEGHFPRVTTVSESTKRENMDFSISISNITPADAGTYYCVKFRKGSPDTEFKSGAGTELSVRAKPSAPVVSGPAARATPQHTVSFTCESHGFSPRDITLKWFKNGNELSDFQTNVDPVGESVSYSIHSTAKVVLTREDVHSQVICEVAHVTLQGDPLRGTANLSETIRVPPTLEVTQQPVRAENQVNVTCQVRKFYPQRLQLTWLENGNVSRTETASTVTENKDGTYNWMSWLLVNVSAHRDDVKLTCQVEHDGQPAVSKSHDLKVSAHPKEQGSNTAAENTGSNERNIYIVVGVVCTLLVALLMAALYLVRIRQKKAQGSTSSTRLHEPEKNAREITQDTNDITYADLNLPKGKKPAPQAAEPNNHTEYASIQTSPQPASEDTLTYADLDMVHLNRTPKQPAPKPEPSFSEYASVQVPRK
T2 sequence (Q5TFQ8 30-398 limits assumed, change not shown): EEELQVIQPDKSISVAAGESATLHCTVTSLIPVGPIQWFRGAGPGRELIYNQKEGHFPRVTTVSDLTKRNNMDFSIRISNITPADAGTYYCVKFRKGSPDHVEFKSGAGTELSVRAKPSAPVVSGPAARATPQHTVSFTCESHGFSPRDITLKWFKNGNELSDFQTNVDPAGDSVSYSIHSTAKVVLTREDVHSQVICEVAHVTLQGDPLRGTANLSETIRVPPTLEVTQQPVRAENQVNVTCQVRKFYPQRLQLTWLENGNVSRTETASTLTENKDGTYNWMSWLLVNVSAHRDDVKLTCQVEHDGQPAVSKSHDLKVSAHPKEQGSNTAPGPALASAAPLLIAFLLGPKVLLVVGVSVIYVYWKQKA
T1 sequence (Q9P1W8 29-387 limits assumed): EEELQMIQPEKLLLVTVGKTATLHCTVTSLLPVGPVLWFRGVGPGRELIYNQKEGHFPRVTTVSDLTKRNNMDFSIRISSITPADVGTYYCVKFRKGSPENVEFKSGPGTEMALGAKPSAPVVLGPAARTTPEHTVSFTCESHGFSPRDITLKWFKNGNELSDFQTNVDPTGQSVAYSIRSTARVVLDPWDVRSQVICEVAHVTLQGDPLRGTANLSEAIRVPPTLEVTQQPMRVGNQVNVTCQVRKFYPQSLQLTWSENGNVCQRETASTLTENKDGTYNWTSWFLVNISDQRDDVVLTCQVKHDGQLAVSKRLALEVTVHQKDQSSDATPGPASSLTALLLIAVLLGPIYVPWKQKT

B1: hSIRPα.50A (antibody, V domains shown)
VH: QVQLQQSGPELVKPGASVRISCKASGFTFTNYYIHWVKQRPGQGLEWIGWIYPGNVNTKYNEKFKAKATLTADKSSTTAYMQLSSLASEDSAVYFCARPTIIATDFDVWGAGTTVTVSS
VL: DIVMTQSHKFMSTSVGDRVNITCKASQGVGTAVGWYQQKPGQSPRLLIYWASTRHTGVPDRFTGSGSGTDFSLAISNVQSEDLADYFCQQYSTYPFTFGGGTNLEIK
notes: light chain constant domain not tied; also called mouse hSIRPα.50A; hSIRPα.50A.mIgG1
Usually EC50 stands for the concentration needed to bring the measured effect to its halfway point. What is called IC50 is the concentration that gives 50% inhibition. A higher IC50 goes with a need for much substance. For the molecule B1, the EC50 with human SIRPγ was 1.25 nM; in assay [1] it was 0.632 nM. The results for the half-inhibitory concentration (IC50) (in the assay with human SIRPα variant 2; in assay [2]) were 4.61 nM and 1.03 nM, respectively.

B2: KWAR23 (antibody, V domains shown)
VH: EVQLQQSGAELVKPGASVKLSCTASGFNIKDYYIHWVQQRTEQGLEWIGRIDPEDGETKYAPKFQDKATITADTSSNTAYLHLSSLTSEDTAVYYCARWGAYWGQGTLVTVSS
VL: QIVLTQSPAIMSASPGEKVTLTCSASSSVSSSYLYWYQQKPGSSPKLWIYSTSNLASGVPARFSGSGSGTSYSLTISSMEAEDAASYFCHQWSSYPRTFGAGTKLELK
B2: the EC50 with human SIRPβ1 was determined as 0.065 nM.
